Measured values from patent publication US20230240988A1, “FLUID GEL COMPOSITIONS” (The University of Birmingham, priority 2020, published 2023).

How the values were obtained:
[1] = Release assay of active agents from PEG-DA fluid gel (trans-well, UV/Vis); type: physicochemical; conditions: 3% v/v PEG-DA fluid gel (500 rpm), PBS 37° C., 5 hrs
Description: • Active amounts: […] • Standard concentrations of active in PBS were prepared. • Standards were pipetted into a quartz cuvette (1 mm pathlength). • […] spectroscopy was used to measure absorbance between 200 and 700 nm wavelength. • Curves were plotted and used to determine standard curves which were used to determine concentrations. • 0.5 ml PBS was added to the well of a 24 well plate. • The PBS was incubated at 37° C. to equilibrate. 0.1 ml of the fluid gel containing active was placed in a trans-well insert. • The trans-well insert was placed into a well containing PBS. • After a given time period the trans-well insert was removed and placed in a fresh well of PBS. • The release media was then removed and analysed using […] spectroscopy. Concentrations were derived from the standard curves and cumulative release plotted as a function of time.

fibrin gel = assay: Matrix breakdown assay; type: biochemical; conditions: 60° C.; images at various timepoints
Description: • Add proteinase K (10 mg) to PBS to make a total volume of 1 ml. • Mix well on a vortex mixer until dissolved.
• Add 0.9 ml of 3% v/v PEG-DA fluid gel prepared according to Example 5.3 to an Eppendorf. • To each gel add 0.1 ml of active in PBS. • Mix well using a vortex mixer. • Refrigerate for 24 hours before testing.
0.5 ml of fibrin gel (8.5 mg/ml) was formed in the wells of a 24 well plate. • 0.5 ml of PBS was added to each well. • 0.1 ml of fluid gel containing active was added to a trans-well insert and placed above the fibrin gel. • Samples were incubated at 60° C. to activate the proteinase K. • Images were taken at various timepoints and compared to (a) the control wells containing only fibrin gel+PBS; and (b) wells containing fibrin gel+proteinase k (no fluid gel carrier).

B1: Proteinase K: extracellular matrix remodelling agent, proteinase (protein, UniProt P06873 106-384, looked up)
Proteinase K: AAQTNAPWGLARISSTSPGTSTYYYDESAGQGSCVYVIDTGIEASHPEFEGRAQMVKTYYYSSRDGNGHGTHCAGTVGSRTYGVAKKTQLFGVKVLDDNGSGQYSTIIAGMDFVASDKNNRNCPKGVVASLSLGGGYSSSVNSAAARLQSSGVMVAVAAGNNNADARNYSPASEPSVCTVGASDRYDRRSSFSNYGSVLDIFGPGTSILSTWIGGSTRSISGTSMATPHVAGLAAYLMTLGKTTAASACRYIADTANKGDLSNIPFGTVNLLAYNNYQA
With B1 the “release of active agent from fluid gel” value [1] was “able to release” and the “fibrin gel break down” value (fibrin gel) was “faster”.
